Source: US20210380697A1 (HUMMINGBIRD BIOSCIENCE PTE, published 2021)

B1: IGN175A IgG1 (antibody, V domains shown)
VH: QVQLQQSGAELMKPGASVKISCKATGYTFSTHWIEWVKQRPGHGLEWIGEILPGSGSTSYNEKFKGKATFTADTSSNTAYMQLSSLTSEDSAVYYCARWLLYYYAMDYWGQGTSVTVSS
VL: DVLMTQTPLSLPVSLGDQASISCRSSQSIVHSNGNTYLEWYLQKPGQSPKLLIYKLSNRFSGVPDRFSGSGSGTDFTLKISRVEAEDLGVYYCFQGSHFPYTFGGGTKLEIKR
notes: Prior-art comparator (WO 2014/197849)
B2: anti-VISTA clone V4-C1 IgG1 (antibody, V domains shown)
VH: QVQLQESGPGLVKPSDTLSLTCTVSGYSITSDYAWNWIRQTPGKGLEWIGYITYSGYISYNPSLRSRVTISRDTSKNQFSLKLSSVTAADTAVYSCARALYYPWYFDVWGTGTTVTVSS
VL: EIVITQSPATLSLSPGERATLSCRASSSVGYIHWYQQKPGQAPRPLIYATSNRATGIPARFSGSGSGTDNTLTISSLEPEDSAVYYCQQWSSYPPITFGGGTKLEVKR

Assays:
[1] = biological target: T1, His-tagged human VISTA (human, UniProt Q9H7M9 33-194); test: BLI epitope binning, human VISTA-His on anti-Penta-His sensor; row = saturating antibody 400 nM; competitor added after it: V4-C1 IgG1 300 nM
T1 construct: Bought recombinant protein with a His tag; also called human VISTA-His recombinant protein; hVISTA
Protocol: (§1) Epitope binning experiments were performed by BLI using the Octet QK384 system (ForteBio). […] Biosensors were subsequently treated with 300 nM competing antibody in
(§2) The following antigen-binding molecules were analysed in the experiment: [1639]

[2] = biological target: T1, His-tagged human VISTA; test: BLI epitope binning, human VISTA-His on anti-Penta-His sensor; row = saturating antibody 400 nM; competitor added after it: IGN175A IgG1 300 nM
Protocol: as §1, §2

Row | Binder | change in response upon addition of the competing antibody [1] | change in response upon addition of the competing antibody [2]
1 | B1 | 1.44 nm | 0.0454 nm
2 | B2 | -0.0158 nm | 1.07 nm
